{"source": "patent US20240124568A1", "about": "“CHEMERIN INHIBITORS AND USES THEREOF FOR TREATING KIDNEY CANCER” (University of Miami, priority 2022, published 2024)", "molecules": {"B1": {"name": "chemerin mAb: monoclonal antibody against chemerin; heavy chain SEQ ID NO: 3, light chain SEQ ID NO: 4 (antibody, V domains shown)", "VH": "MEWNWVVLFLLSLTAGVYSQGQMQQSGAELVKPGASVKLSCKTSGFTFSSSYISWLKQKPRQSLEWIAWIYAGTGGTSYNQKFTGKAQLTVDTSSSTAYMQLSSLTSEDSAIYYCASFWDSWGQGTTLTVSS", "VL": "MRCLAEFLGLLVLWIPGAIGDIVMTQAAPSVPVTPGESVSISCRSSKSLLHSNGNTYLYWFLQRPGQSPQLLIYRMSNLASGVPDRFSGSGSGTAFTLRISRVEAEDVGVYYCMQHLEYPLTFGAGTKLELK"}, "B2": {"name": "recombinant chemerin protein: recombinant chemerin protein used to rescue chemerin-silenced cells (protein, UniProt Q99969 21-157, looked up)", "Retinoic acid receptor …": "ELTEAQRRGLQVALEEFHKHPPVQWAFQETSVESAVDTPFPAGIFVRLEFKLQQTSCRKRDWKKPECKVRPNGRKRKCLACIKLGSEDKVLGRLVHCPIETQVLREAEEHQETQCLRVQRAGEDPHSFYFPGQFAFS"}}, "key": {"[1]": {"system": "chemerin-knockdown 786-O cells", "test": "Cell proliferation assay, rescue in chemerin-knockdown 786-O cells", "assay_type": "cell-based, human", "protocol": "Cell Proliferation Assay. Cells were plated at a density of 100,000 cells in triplicate wells of a 6-well plate, supplemented with DMEM containing 10% FBS. Cells were trypsinized and were counted using the Cell Counter Countess II (Life Technologies) at days 3, 6, 9 and 12."}, "786-O and 769-P cells": {"system": "786-O and 769-P cells", "test": "EdU incorporation assay (DNA synthesis)", "assay_type": "cell-based, human", "conditions": "chemerin-knockdown 786-O cells, etomoxir 50 μM and 100 μM, EdU flow cytometry", "protocol": "EdU incorporation assay. […] After incubation, the cells were fixed with 3.7% formaldehyde/PBS for 15 minutes at room temperature and washed with 1 mL of 3% BSA/PBS twice. 1 mL of 0.5% TritonX-100 in PBS was added for 20 minutes at room temperature to permeabilize the cells. Next, cells were incubated with 0.5 mL of Click-iT reaction cocktail (Invitrogen, Cat #C10337) prepared according to manufacturer's instructions, at room temperature for 30 minutes and away from direct light. DAPI (Millipore, Cat #268298) was added later for DNA staining. […]"}, "[2]": {"system": "HIF2α and chemerin protein in 786-O and 769-P cells", "test": "Immunoblots of lysates after fatty acid treatment", "assay_type": "cell-based, human", "conditions": "500 μM fatty acid", "protocol": "Protein Extraction and Western blotting. The cells were washed with 1× ice-cold PBS (GE, Cat #SH30256.01) once before they were lysed in RIPA lysis buffer (50 mM Tris-HCl, pH 7.5; 150 mM NaCl; 0.5% NP-40; 50 mM NaF) and scraped from the plate on ice. The RIPA lysis buffer contained 1:1000 1× protease inhibitor cocktail (Sigma-Aldrich) and 1:100 1× phosphatase inhibitor (Sigma-Aldrich). The lysates were passed through a 16G needle 15 times before they were centrifuged at 4° C. for 20 minutes at 20,000×g. The protein lysates were quantified using the Pierce BCA Protein Assay Kit (Thermo) according to the manufacturer's protocols and absorbance was measured using GloMax Discover Microplate Reader (Promega). Between 50 and 100 μg of protein samples were mixed with 5×SDS Laemmli loading buffer and boiled at 95° C. for 5 minutes. Proteins were separated using 4-20% SDS-PAGE gels (Bio-Rad) and transferred onto PVDF membrane (Millipore). The membrane was blocked with TBS-T supplemented with 5% non-fat dry milk primary antibody for 45 minutes at room temperature rocking before blotting with primary antibodies at 4° C. overnight. The membrane was washed in TB S-T 3 times with 5 minutes each and blotted in secondary antibodies at room temperature for 2 hours. An Azure 300 chemiluminescent western blot imaging system (Azure biosystems) was used to visualize the membrane. […]"}, "HIF2α mRNA in 786-O": {"system": "HIF2α mRNA in 786-O", "test": "qRT-PCR of HIF1α and HIF2α after fatty acid incubation", "assay_type": "cell-based, human", "conditions": "500 μM fatty acid for 24 hours", "protocol": "RNA Isolation and Real Time Quantitative Polymerase Chain Reaction (qRT-PCR). Total RNA was extracted using TRIzol reagent (Invitrogen, Cat #15596018). The concentration and quality of RNA were determined using a NanoDrop 1000 spectrophotometer (Thermo). 500 ng of RNA was used to synthesize cDNA using the Quantabio qScript cDNA SuperMix (Quantabio, Cat #95048-100) according to the manufacturer's recommendations. The cDNA was diluted by 10-fold before used for qRT-PCR gene expression analysis. qRT-PCR was performed using Power SYBR Green PCR Master Mix (Applied Biosystems, Cat #4367659) and SYBR Green primers (Table 3). The Ct values of the gene of interest was normalized to the Ct value of the housekeeping control, β-actin. The fold change was then calculated using the 2^−ΔΔCt method. Sodium palmitate preparation and supplementation. To prepare BSA-palmitate conjugate, sodium palmitate (Thermo, Cat #P0500) was added to a NaCl solution and heated in a water bath while stirring. The hot palmitate solution was mixed with BSA solution, 5 mL at a time. The final volume was adjusted with 150 mM NaCl for 1 mM palmitate solution and pH was adjusted to 7.4. Sodium palmitate solution was added to cell at final concentration 500 μM and incubated for 24 hours."}, "786-O cells [3]": {"system": "786-O cells", "test": "Oil Red O (ORO) lipid droplet staining of cells", "assay_type": "cell-based, human", "conditions": "compared to treatment with IgG", "protocol": "Oil Red O (ORO) Lipid Droplet Staining. For tissue sections staining, the tissues were cryoprotected by incubating in 30% sucrose/PBS solution. After the tissues sank to the bottom of the vial, the tissues were embedded in OCT (Fisher Healthcare). Embedded tissue blocks were sectioned at 10 μm thickness and stored at −80° C. until ready for staining. Before ORO staining, the frozen sections were air dried and fixed in 10% neutral buffered formalin (Sigma-Aldrich, Cat #HT501128). After fixing in 100% propylene glycol (VWR, Cat #0575) twice, sections were stained with freshly made ORO solution (Sigma-Aldrich, Cat #00625) followed by staining for hematoxylin. Then, the slides were washed with distilled water and mounted using glycerin jelly (Sigma-Aldrich). The sections were visualized using a VS120 Virtual Slide Microscope scanner (Olympus). For cell staining, the cells plated in 12-well plates in triplicate were rinsed with PBS twice, and fixed with 10% formaldehyde for 1 hour. […] After the cells were air dried, 250 μL of isopropanol was added to the wells and the eluted solution was measured at 510 nm. Next, the cells were stained with sulforhodamine B as previously described, and measured at 564 nm using GloMax Discover Microplate Reader (Promega), as previously described."}, "786-O orthotopic tumors": {"system": "786-O orthotopic tumors", "test": "Orthotopic 786-O tumor growth under left kidney capsule of nude mice (bioluminescence imaging)", "assay_type": "in vivo", "conditions": "for in vivo 786-O tumor growth (bioluminescence imaging): 20 mg/kg twice weekly versus IgG control mAb, n=6 each arm; for animal weight / toxicity: nude mice with orthotopic 786-O, 20 mg/kg twice weekly, weight recorded weekly", "text": "Animal Studies. All animal experiments were in compliance with National Institutes of Health guidelines and were approved by the Institutional Animal Care and Use Committee (IACUC) of the University of Miami Miller School of Medicine. Six-week-old female athymic nude mice (Charles River Laboratories) were used for xenograft studies. Mice were housed (3-5 mice per cage) on a 12-hour light/dark cycle in individually ventilated cages, and with ad libitum access to food and water. The experimental holding room had temperature (21.5° C. set point) and humidity control (40% set point), and it was equipped with HEPA-filtered air. For subcutaneous tumor growth model, cells were pelleted and resuspended in a PBS/Matrigel Matrix (Corning, Cat #356234) mix at 1:1 ratio. 2×10^6 cells in a 100 μL solution were injected subcutaneously into each flank. Once palpable tumors were established, digital calipers were used to measure tumor size twice weekly. Tumor volume was calculated using the equation V=½ (length×width^2). For orthotopic tumor growth assays, soft collagen pellets containing 1×10^6 cells were implanted orthotopically under the capsules of the left kidney. Tumors were palpated and monitored twice weekly using IVIS bioluminescence imaging (Perkin Elmer). At the end of the experiments, blood was collected and both kidneys were harvested."}, "786-O cells [4]": {"system": "786-O cells", "test": "Lipid reactive oxygen species, BODIPY 581/591 C11", "assay_type": "cell-based, human", "conditions": "compared to treatment with IgG", "protocol": "Lipid Reactive Oxygen Species. The cells were plated at 50,000 cells per well in 24-well plate. 10 uM BODIPY-581/591 C11 (Invitrogen, Cat #D3861) and 1 ug/mL DAPI (Millipore) were added to the media and incubated for 1 hour at 37° C., 5% CO2. Cells were imaged using Olympus FV1000 confocal scanning microscope and analyzed using Fiji software (ImageJ). 9 randomly selected images per condition were selected for analysis."}, "[5]": {"system": "patient derived xenograft of kidney cancer", "test": "Patient derived xenograft of kidney cancer, antibody versus cabozantinib (FIG. 20)", "assay_type": "in vivo", "conditions": "antibody 20 mg/kg twice per week versus cabo 10 mg/kg 5 times per week"}, "HK-2 cells": {"system": "HK-2 cells", "test": "Cell viability assay (MTT) after monoclonal antibody treatment, HK-2", "assay_type": "cell-based, human", "conditions": "similar dose range of the antibody"}, "786-O cells [6]": {"system": "786-O cells", "test": "Cell viability assay (MTT) after monoclonal antibody treatment, 786-O", "assay_type": "cell-based, human", "conditions": "increasing concentrations of mAb, 2, 4 and 6 days", "protocol": "Cell Viability Assay. After treatment with monoclonal antibodies, 786-O cells were incubated with 3-(4,5-dimethylthiazol-2-yl)-2,5-diphenylterazolium bromide (MTT, Sigma-Aldrich) to assess cell survival. Briefly, the cells were plated at density of 1000 cells/plate in 96-well plates and treated with different concentrations of monoclonal antibodies (IgG or anti-RARRES2) for indicated incubation times (2 days, 4 days and 6 days). MTT solution was diluted 5-fold in DMEM media and incubated in 37° C. incubator for 4 hours. The media was carefully removed and the precipitate was dissolved in DMSO. The solution later immediately quantified at 450 nm using the GloMax Discover Microplate Reader (Promega)."}, "786-O cells [7]": {"system": "786-O cells", "test": "BODIPY 493/503 lipid droplet imaging", "assay_type": "cell-based, human", "conditions": "chemerin-silenced 786-O cells; 50 nM recombinant chemerin protein for 18 hours", "protocol": "BODIPY Lipid Droplet Imaging. Cells were plated on round glass coverslips of 12-well plates and incubated with 1 mL of DMEM supplemented with 10% FBS. The medium was removed and cells were washed with room temperature PBS, fixed with 4% formaldehyde for 30 minutes and incubated with 300 μL of 1 uM BODIPY 493/503 (Life Technologies, Cat #D3922) for 15 minutes, protected from direct light. 1 μg/mL of DAPI (Millipore) was added for nucleus staining. The z stack images were acquired using Olympus FV1000 confocal scanning microscope and analyzed using Fiji software (ImageJ)."}}, "note": "Entries after “also recorded” stand apart in the source; their conditions may differ."}
{"molecule": "Clc1cccc(CN=C2Nc3ccccc3NC23CCNCC3)c1", "note": "[Liproxstatin-1]", "values": [{"measurement": "rescue of proliferation defect", "setting": "[1]; chemerin-deficient 786-O cells, 0.5 μM Liproxstatin-1", "value": "rescued the proliferation defect"}]}
{"molecule": "CCOC(=O)[C@@]1(CCCCCCOc2ccc(Cl)cc2)CO1", "note": "[etomoxir]", "values": [{"measurement": "rescue of DNA synthesis (EdU)", "setting": "786-O and 769-P cells", "value": "rescued the reduction in DNA synthesis"}, {"measurement": "rescue of DNA synthesis (EdU)", "setting": "786-O and 769-P cells; listed as Etomoxir", "value": "rescues tumorigenesis"}, {"measurement": "rescue of proliferation defect", "setting": "[1]; chemerin-knockdown 786-O cells, 50 μM Etomoxir", "value": "rescued"}, {"measurement": "rescue of proliferation defect", "setting": "[1]; chemerin-knockdown 786-O cells, 50 μM Etomoxir, listed as Etomoxir", "value": "rescues proliferation defect"}]}
{"molecule": "CCOC(=O)c1ccc(NC2CCCCC2)c(N)c1", "note": "[Ferrostatin-1]", "values": [{"measurement": "rescue of proliferation defect", "setting": "[1]; chemerin-deficient 786-O cells, 1 μM Ferrostatin-1", "value": "rescued the proliferation defect"}]}
{"molecule": "CCCCC/C=C\\C/C=C\\CCCCCCCC(=O)O", "note": "[linoleic acid]", "values": [{"measurement": "HIF2α protein", "setting": "[2]", "value": "opposite pattern; also recorded: decreased"}, {"measurement": "chemerin protein", "setting": "[2]", "value": "opposite pattern; also recorded: decreased"}, {"measurement": "HIF2α mRNA", "setting": "HIF2α mRNA in 786-O", "value": "opposite pattern"}]}
{"molecule": "B1", "values": [{"measurement": "lipid droplets (ORO staining quantification)", "setting": "786-O cells [3]", "value": "decrease in lipid droplets"}, {"measurement": "in vivo 786-O tumor growth (bioluminescence imaging)", "setting": "786-O orthotopic tumors", "value": "significantly reduced"}, {"measurement": "in vivo 786-O tumor growth (bioluminescence imaging)", "setting": "786-O orthotopic tumors; listed as monoclonal antibody (mAb) targeting chemerin", "value": "reduces ccRCC tumor burden"}, {"measurement": "tumor weight upon sacrifice", "setting": "786-O orthotopic tumors; 20 mg/kg twice weekly versus IgG mAb, n=6 each group", "value": "lower tumor weights"}, {"measurement": "animal weight / toxicity", "setting": "786-O orthotopic tumors", "value": "did not result in significant changes in animal weight"}, {"measurement": "animal weight / toxicity", "setting": "786-O orthotopic tumors; listed as monoclonal antibody targeting chemerin", "value": "no toxicity"}, {"measurement": "lipid ROS (BODIPY 581/591 C11)", "setting": "786-O cells [4]", "value": "increase in lipid ROS"}, {"measurement": "efficacy compared with cabozantinib", "setting": "[5]", "value": "as effective as cabo"}, {"measurement": "cell viability", "setting": "HK-2 cells", "value": "cell viability was not affected"}, {"measurement": "cell viability", "setting": "786-O cells [6]", "value": "dose-dependent reduction in cell viability"}]}
{"molecule": "B2", "values": [{"measurement": "rescue of lipid deposition (BODIPY 493/503)", "setting": "786-O cells [7]", "value": "partially rescued; also recorded: rescued the lipid deposition defect"}]}
